# Numbered stars: 1 amine (or outer) side, 2 acyl side, 3 side chain; on linkers, the order of the positions; unused ones are H or OH. Bridge positions count the residues as written; N and C are the ends. Square brackets hold non-standard residues; d marks the D form. Side chains are listed from the residue outwards. Ends that are not written are not given here. * marks the point of attachment. C20 diacid = O=C(O)CCCCCCCCCCCCCCCCCCC(=O)*; γGlu = O=C(O)[C@H](CCC(=O)[*:2])N[*:1]; Hyp = O=C(O)[C@@H]1C[C@@H](O)CN1; Trx = NC[C@H]1CC[C@H](C(=O)O)CC1; AEEA = NCCOCCOCC(=O)O
# Molecular target: T1, hAMY3R (human, UniProt P30988)
# T1 sequence 1: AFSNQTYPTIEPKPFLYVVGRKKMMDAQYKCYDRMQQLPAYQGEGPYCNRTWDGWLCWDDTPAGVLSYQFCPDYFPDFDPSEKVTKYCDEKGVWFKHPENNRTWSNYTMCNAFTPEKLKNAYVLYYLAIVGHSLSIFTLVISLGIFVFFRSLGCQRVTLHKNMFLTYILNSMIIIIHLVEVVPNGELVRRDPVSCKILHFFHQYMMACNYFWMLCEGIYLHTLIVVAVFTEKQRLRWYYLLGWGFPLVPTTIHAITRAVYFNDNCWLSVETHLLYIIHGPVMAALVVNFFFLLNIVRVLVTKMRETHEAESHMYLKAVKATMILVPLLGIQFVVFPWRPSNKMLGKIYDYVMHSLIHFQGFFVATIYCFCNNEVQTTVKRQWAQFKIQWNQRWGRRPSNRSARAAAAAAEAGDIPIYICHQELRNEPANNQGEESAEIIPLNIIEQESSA
# T1 sequence 2: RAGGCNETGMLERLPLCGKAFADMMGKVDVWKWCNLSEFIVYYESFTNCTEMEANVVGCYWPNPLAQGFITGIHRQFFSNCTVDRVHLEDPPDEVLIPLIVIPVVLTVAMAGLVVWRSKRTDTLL
# Assay: cell-based or functional assay
row,Binder,hAMY3R EC50 (cAMP)
1,GCRTGTCTVQRLAHQIHQFTNKDKDNVAPRSKISPQT[Hyp]-NH2 (disulfide 2-7 (inferred); ends not checked) [SEQ ID NO: 227],0.187 nM
2,GCRTGTCTVQRLAHQIWQFTDKFKDNVAPRSKISPQT[Hyp]-NH2 (disulfide 2-7 (inferred); ends not checked) [SEQ ID NO: 213],0.153 nM
3,GCRTGTCTVQRLAHQIYQFTDKFKDNVAPRSKISPQF[Hyp]-NH2 (disulfide 2-7 (inferred); ends not checked) [SEQ ID NO: 211],0.151 nM
4,GCRTGTCTVQRLAHQIYQFTDKFKDNVAPRSKISPQP[Hyp] (ends and bridges not checked) [SEQ ID NO: 203],0.127 nM
5,KCNTATCTVQRLAHQAYQFTDKDKDNVAPPTNVGSNG[Hyp]-NH2 (disulfide 2-7 (inferred); ends not checked) [SEQ ID NO: 210],0.137 nM
6,GCRFGTCTVQRLAHQLYQFTDKDKDNVAPRSKISPQT[Hyp]-NH2 (disulfide 2-7 (inferred); ends not checked) [SEQ ID NO: 217],0.167 nM
7,{C20 diacid-γGlu}-KCNTATCTVQRLANQIYQFTDKDKDNVAPPTNVGSNG[Hyp]-NH2 (disulfide 2-7 (inferred); ends not checked) [SEQ ID NO: 21],0.008 nM
8,GCRTGTCTVQRLAHQIYQFTDKFKDNVAPRSKISPQK[Hyp]-NH2 (disulfide 2-7 (inferred); ends not checked) [SEQ ID NO: 206],0.13 nM
9,GCRTGTCTVQRLAHQIYQFTDKDKDNVAPRSNVSPQG[Hyp]-NH2 (disulfide 2-7 (inferred); ends not checked) [SEQ ID NO: 224],0.186 nM
10,GCRTGTCTVQRLAHQIYQFTDKDKDNVAPRTKVSPQG[Hyp]-NH2 (disulfide 2-7 (inferred); ends not checked) [SEQ ID NO: 216],0.164 nM
11,GCRFGTCTVQRLAHQIYQFTDKFKDNVAPRSKISPQT[Hyp]-NH2 (disulfide 2-7 (inferred); ends not checked) [SEQ ID NO: 212],0.153 nM
12,{C20 diacid-γGlu}-KCNTLTCTVQRLAHQIYQFTDKDKDNVAPPTNVGSNG[Hyp]-NH2 (disulfide 2-7 (inferred); ends not checked) [SEQ ID NO: 225],0.186 nM
13,GCRMGTCTVQRLAHQIYQFTDKDKDNVAPSSKISPQT[Hyp]-NH2 (disulfide 2-7 (inferred); ends not checked) [SEQ ID NO: 222],0.184 nM
14,GCRTGTCTVQRLAHQIHQFTDKDKDNVAPRSKISPQT[Hyp]-NH2 (disulfide 2-7 (inferred); ends not checked) [SEQ ID NO: 228],0.205 nM
15,GCRTGTCTVQRLAHQIYQFTDKFKDNVAPRSKISPQA[Hyp]-NH2 (disulfide 2-7 (inferred); ends not checked) [SEQ ID NO: 218],0.169 nM
16,KCNTATCATQRLANFLVHSSNNFGAILPSTKIGSNGY [SEQ ID NO: 207],0.131 nM
17,{C20 diacid-γGlu}-GCRFGTCTVQRLAHFLYQFTDKDKDNVAPRTKVGSNGY-NH2 (disulfide 2-7 (inferred); ends not checked) [SEQ ID NO: 223],0.186 nM
18,GCRWGTCTVQRLAHQIYQFTDKDKDNVAPSSKISPQT[Hyp]-NH2 (disulfide 2-7 (inferred); ends not checked) [SEQ ID NO: 202],0.126 nM
19,GCRTGTCTVQRLAHQIYQFTDKDKDNVAPRTNISPQG[Hyp]-NH2 (disulfide 2-7 (inferred); ends not checked) [SEQ ID NO: 214],0.157 nM
20,{C20 diacid-γGlu}-KCNTATCTVQRLAHQITQFTDKDKDNVAPPTNVGSNG[Hyp]-NH2 (disulfide 2-7 (inferred); ends not checked) [SEQ ID NO: 22],0.008 nM
21,GCRTGTCTVQRLAHQIYQFTDKFKDNVAPRSKISPQTM [SEQ ID NO: 215],0.161 nM
22,GCRTGTCTVQRLAHQIYQFTNKDKDNVAPRSKISPQTW [SEQ ID NO: 226],0.186 nM
23,KCNTATCTVQRLAHQIYQFADKDKDNVAPPTNVGSNG[Hyp]-NH2 (disulfide 2-7 (inferred); ends not checked) [SEQ ID NO: 23],0.008 nM
24,{C20 diacid-γGlu}-GCRFGTCTVQRLAHFLYQFTDKDKDNVAPRTNVGSNTY-NH2 (disulfide 2-7 (inferred); ends not checked) [SEQ ID NO: 208],0.133 nM
25,KCRFGTCTVQRLAHQIYQFTDKDKDNVAPRSKISPQT[Hyp]-NH2 (disulfide 2-7 (inferred); ends not checked) [SEQ ID NO: 205],0.13 nM
26,GCRTGTCTVQRLAHQIYQFTDKDKDNVAPRTKVSPQGY [SEQ ID NO: 209],0.136 nM
27,GCRTGTCTVQRLAHQIYQFTDKDKDNVAPRSKVSPNG[Hyp]-NH2 (disulfide 2-7 (inferred); ends not checked) [SEQ ID NO: 204],0.129 nM
28,GCRTGTCTVQRLAHQIYQFTNKDKDNVAPRSKISPQW[Hyp]-NH2 (disulfide 2-7 (inferred); ends not checked) [SEQ ID NO: 220],0.182 nM
29,{C20 diacid-Trx-γGlu-AEEA-AEEA}-K([AEEA-AEEA-γGlu-Trx-C20 diacid])CNTATCTVQRLAEQIYQFTDKDKDNVAPPTNVGSNG[Hyp] (disulfide 2-7 (inferred); ends not checked) [SEQ ID NO: 221],0.184 nM
30,GCRTGTCTVQRLAHQIYQFTNKDKDNVAPRSKISPQH[Hyp]-NH2 (disulfide 2-7 (inferred); ends not checked) [SEQ ID NO: 219],0.171 nM

# Molecular target: hAM1R (human, UniProt Q16602)
# Assay: cell-based or functional assay
row,Binder,hAM1R EC50 (cAMP)
1,GCRTGTCTVQRLAHQIHQFTNKDKDNVAPRSKISPQT[Hyp]-NH2 (disulfide 2-7 (inferred); ends not checked) [SEQ ID NO: 227],4570 nM
2,GCRTGTCTVQRLAHQIWQFTDKFKDNVAPRSKISPQT[Hyp]-NH2 (disulfide 2-7 (inferred); ends not checked) [SEQ ID NO: 213],> 5000 nM
3,GCRTGTCTVQRLAHQIYQFTDKFKDNVAPRSKISPQF[Hyp]-NH2 (disulfide 2-7 (inferred); ends not checked) [SEQ ID NO: 211],2760 nM
4,GCRTGTCTVQRLAHQIYQFTDKFKDNVAPRSKISPQP[Hyp] (ends and bridges not checked) [SEQ ID NO: 203],> 5000 nM
5,KCNTATCTVQRLAHQAYQFTDKDKDNVAPPTNVGSNG[Hyp]-NH2 (disulfide 2-7 (inferred); ends not checked) [SEQ ID NO: 210],> 5000 nM
6,GCRFGTCTVQRLAHQLYQFTDKDKDNVAPRSKISPQT[Hyp]-NH2 (disulfide 2-7 (inferred); ends not checked) [SEQ ID NO: 217],> 5000 nM
7,{C20 diacid-γGlu}-KCNTATCTVQRLANQIYQFTDKDKDNVAPPTNVGSNG[Hyp]-NH2 (disulfide 2-7 (inferred); ends not checked) [SEQ ID NO: 21],> 5000 nM
8,GCRTGTCTVQRLAHQIYQFTDKFKDNVAPRSKISPQK[Hyp]-NH2 (disulfide 2-7 (inferred); ends not checked) [SEQ ID NO: 206],> 5000 nM
9,GCRTGTCTVQRLAHQIYQFTDKDKDNVAPRSNVSPQG[Hyp]-NH2 (disulfide 2-7 (inferred); ends not checked) [SEQ ID NO: 224],2980 nM
10,GCRTGTCTVQRLAHQIYQFTDKDKDNVAPRTKVSPQG[Hyp]-NH2 (disulfide 2-7 (inferred); ends not checked) [SEQ ID NO: 216],2980 nM
11,GCRFGTCTVQRLAHQIYQFTDKFKDNVAPRSKISPQT[Hyp]-NH2 (disulfide 2-7 (inferred); ends not checked) [SEQ ID NO: 212],> 5000 nM
12,{C20 diacid-γGlu}-KCNTLTCTVQRLAHQIYQFTDKDKDNVAPPTNVGSNG[Hyp]-NH2 (disulfide 2-7 (inferred); ends not checked) [SEQ ID NO: 225],> 5000 nM
13,GCRMGTCTVQRLAHQIYQFTDKDKDNVAPSSKISPQT[Hyp]-NH2 (disulfide 2-7 (inferred); ends not checked) [SEQ ID NO: 222],> 5000 nM
14,GCRTGTCTVQRLAHQIHQFTDKDKDNVAPRSKISPQT[Hyp]-NH2 (disulfide 2-7 (inferred); ends not checked) [SEQ ID NO: 228],> 5000 nM
15,GCRTGTCTVQRLAHQIYQFTDKFKDNVAPRSKISPQA[Hyp]-NH2 (disulfide 2-7 (inferred); ends not checked) [SEQ ID NO: 218],> 5000 nM
16,KCNTATCATQRLANFLVHSSNNFGAILPSTKIGSNGY [SEQ ID NO: 207],> 5000 nM
17,{C20 diacid-γGlu}-GCRFGTCTVQRLAHFLYQFTDKDKDNVAPRTKVGSNGY-NH2 (disulfide 2-7 (inferred); ends not checked) [SEQ ID NO: 223],47.7 nM
18,GCRWGTCTVQRLAHQIYQFTDKDKDNVAPSSKISPQT[Hyp]-NH2 (disulfide 2-7 (inferred); ends not checked) [SEQ ID NO: 202],> 5000 nM
19,GCRTGTCTVQRLAHQIYQFTDKDKDNVAPRTNISPQG[Hyp]-NH2 (disulfide 2-7 (inferred); ends not checked) [SEQ ID NO: 214],2980 nM
20,{C20 diacid-γGlu}-KCNTATCTVQRLAHQITQFTDKDKDNVAPPTNVGSNG[Hyp]-NH2 (disulfide 2-7 (inferred); ends not checked) [SEQ ID NO: 22],> 5000 nM
21,GCRTGTCTVQRLAHQIYQFTDKFKDNVAPRSKISPQTM [SEQ ID NO: 215],> 5000 nM
22,GCRTGTCTVQRLAHQIYQFTNKDKDNVAPRSKISPQTW [SEQ ID NO: 226],> 5000 nM
23,KCNTATCTVQRLAHQIYQFADKDKDNVAPPTNVGSNG[Hyp]-NH2 (disulfide 2-7 (inferred); ends not checked) [SEQ ID NO: 23],> 5000 nM
24,{C20 diacid-γGlu}-GCRFGTCTVQRLAHFLYQFTDKDKDNVAPRTNVGSNTY-NH2 (disulfide 2-7 (inferred); ends not checked) [SEQ ID NO: 208],242 nM
25,KCRFGTCTVQRLAHQIYQFTDKDKDNVAPRSKISPQT[Hyp]-NH2 (disulfide 2-7 (inferred); ends not checked) [SEQ ID NO: 205],3230 nM
26,GCRTGTCTVQRLAHQIYQFTDKDKDNVAPRTKVSPQGY [SEQ ID NO: 209],1020 nM
27,GCRTGTCTVQRLAHQIYQFTDKDKDNVAPRSKVSPNG[Hyp]-NH2 (disulfide 2-7 (inferred); ends not checked) [SEQ ID NO: 204],2980 nM
28,GCRTGTCTVQRLAHQIYQFTNKDKDNVAPRSKISPQW[Hyp]-NH2 (disulfide 2-7 (inferred); ends not checked) [SEQ ID NO: 220],> 5000 nM
29,{C20 diacid-Trx-γGlu-AEEA-AEEA}-K([AEEA-AEEA-γGlu-Trx-C20 diacid])CNTATCTVQRLAEQIYQFTDKDKDNVAPPTNVGSNG[Hyp] (disulfide 2-7 (inferred); ends not checked) [SEQ ID NO: 221],> 5000 nM
30,GCRTGTCTVQRLAHQIYQFTNKDKDNVAPRSKISPQH[Hyp]-NH2 (disulfide 2-7 (inferred); ends not checked) [SEQ ID NO: 219],4250 nM

# Source: patent publication US12139520B2 (priority 2020, dated 2024)
